Assay results from publication PMC5794992.

Molecular target: BraA.Gα1 (Gα subunit of B. rapa), GAL4 DNA-binding domain fusion (Brassica rapa)
Sequence (P18064 other isoform, or with tags, fused parts or gaps): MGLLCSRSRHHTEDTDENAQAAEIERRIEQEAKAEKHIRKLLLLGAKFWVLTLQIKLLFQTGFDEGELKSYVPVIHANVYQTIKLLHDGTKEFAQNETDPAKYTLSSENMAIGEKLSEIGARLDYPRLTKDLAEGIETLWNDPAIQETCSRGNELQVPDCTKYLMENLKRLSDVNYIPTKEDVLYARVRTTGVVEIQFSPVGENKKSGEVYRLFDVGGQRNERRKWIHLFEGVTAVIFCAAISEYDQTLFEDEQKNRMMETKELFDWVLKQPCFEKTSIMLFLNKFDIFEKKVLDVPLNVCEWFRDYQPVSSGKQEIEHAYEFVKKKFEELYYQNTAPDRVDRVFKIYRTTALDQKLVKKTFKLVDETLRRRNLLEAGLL

Substance | Km of steady state Pi release (ENZchek) from 1 μM GTP-loaded BraA.Gα1 with 0.1–2.0 μM purified RGS-domain of BraA.RGS2 (His-tagged proteins from E. coli) | Km of steady state Pi release (ENZchek) from 1 μM GTP-loaded BraA.Gα1 with 0.1–2.0 μM purified RGS-domain of BraA.RGS1 (His-tagged proteins from E. coli)
RGS-domain of BraA.RGS2 (C-terminal cytosolic domain containing the RGS-box), GAL4 activation domain fusion (domain or fragment) | 0.311 | –
RGS-domain of BraA.RGS1 (C-terminal cytosolic domain containing the RGS-box), GAL4 activation domain fusion (domain or fragment) | – | 0.244
